Results published in paper PMC5330279.

Legend:
[1] = biological target: hCRBPII Q108K:K40L:Y60W (human); test: SEC

percent dimer (hCRBPII E72A (human))	stoichiometry N [1]	Substance
50%	–	hCRBPII E72A (natural protein)
–	2	hCRBPII Q108K:K40L:Y60W (natural protein)
